Measurements published in US11938198B2, “Treatment of heart disease by disruption of the anchoring of PP2A” (University of Miami, priority 2019, dated 2024).

Tests used:
[1] = test system: mAKAP-associated phosphatase (PP2A); experiment: Phosphatase activity of mAKAP complexes immunoprecipitated from adult rat heart extracts ([32P]histone); assay type: biochemical; conditions: 50 μM CPT-cAMP, 5 min pre-incubation
Method: (§1) For immunoprecipitation of endogenous, native mAKAP complexes, adult rat hearts (Pel-Freeze) were homogenized in 10 ml HSE buffer. After centrifugation at 15,000×g for 25 minutes, clarified extracts were immunoprecipitated as above.
(§2) Phosphatase Assay—Phosphatase activity was measured according to the method of Ahn et al. using ^32P-labeled histone as substrate (Ahn et al. 2007). Histone was radiolabeled in reactions containing 250 mM MOPS, pH 7.4, 2.5 mM MgAc, 100 mM β-mercaptoethanol, purified PKA catalytic subunit, 1 μM ATP, 20 μM histone, and 1 mCi [γ-^32P]ATP (6000 Ci/mmol). The reaction was terminated by the addition of 50% TCA, and [^32P]histone was purified from free radionucleotide by centrifugation. The [^32P]histone pellet was washed with 1 ml of ether/ethanol/HCL (4:1:0.1) once and 1 ml of ether/ethanol (4:1) three times. The substrate was then suspended in 200 μl PP2A assay buffer (25 mM Tris, pH 7.4, 1 mM DTT, and 10 mM MgCl2) before precipitation with 50% TCA. After repeated washing, the [^32P]histone was suspended in 200 μl PP2A buffer.
(§3) To measure phosphatase activity, immunoprecipitated protein complexes were washed twice in HSE buffer and once in PP2A reaction buffer. […] TCA supernatants containing released ^32PO4 were measured by scintillation counting.

[2] = test system: mAKAP-bound PDE4D3; experiment: PDE activity associated with mAKAP immunoprecipitates from transfected HEK293 cells ([3H]cAMP); assay type: cell-based; conditions: 300 μM OA 30 min then 5 μM Fsk 10 min
Method: Immunoprecipitation—HEK293 cells were used in this project as a heterologous system lacking mAKAP in which the various wildtype and mutant proteins could be easily expressed. Cells cultured on 60 mm plates were transfected at 50%-70% confluency by the calcium phosphate method, using 6 μg of each DNA construct per plate. Cells were harvested 24 hours after transfection in 0.5 ml HSE buffer (HEPES, pH 7.4, 150 mM NaCl, 5 mM EDTA, 1% Triton X-100 and protease inhibitors). Supernatants were incubated with 3 μg antibody and 15 μl prewashed protein A- or G-agarose beads. Following overnight incubation at 4° C., the immunoprecipitates were washed three times with the same buffer. Bound proteins were analyzed by immunoblotting. […]
As phosphorylation of PDE4D3 Ser-54 increases phosphodiesterase activity 2 fold (Sette and Conti 1996), whether OA treatment would also increase the activity of mAKAP-bound PDE4D3 was tested. mAKAP complexes were immunoprecipitated from transfected HEK293 cells and assayed for associated phosphodiesterase activity (FIG. 8B). mAKAP-associated phosphodiesterase activity in untreated cells was detected only when mAKAP was co-expressed with PDE4D3 (FIG. 8B, bar 1, and data not shown), consistent with a previous observation that PDE4D3 accounts for all of the phosphodiesterase activity associated with mAKAP in cardiac myocytes (Dodge et al. 2001).

[3] = target: T1, mAKAP-associated phosphatase (PP2A) (Rattus norvegicus, UniProt P63331); experiment: Phosphatase activity of mAKAP complexes immunoprecipitated from adult rat heart extracts ([32P]histone); assay type: biochemical; conditions: 10 nM
T1 construct: For immunoprecipitation of endogenous, native mAKAP complexes; tissue Pel-Freeze; host or cells: adult rat heart
T1 sequence (P63331 whole entry): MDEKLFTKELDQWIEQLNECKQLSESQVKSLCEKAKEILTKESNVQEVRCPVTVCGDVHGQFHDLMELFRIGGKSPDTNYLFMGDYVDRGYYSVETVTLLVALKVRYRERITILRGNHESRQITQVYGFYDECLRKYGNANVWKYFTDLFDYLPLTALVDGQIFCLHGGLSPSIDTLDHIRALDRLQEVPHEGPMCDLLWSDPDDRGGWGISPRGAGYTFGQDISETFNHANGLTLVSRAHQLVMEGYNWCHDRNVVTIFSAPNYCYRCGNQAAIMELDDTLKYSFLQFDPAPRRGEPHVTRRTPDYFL
Method: as §1, §2, §3

[4] = test system: SRF Ser^103; experiment: SRF Ser103 phosphorylation in neonatal rat ventricular myocytes (NRVM); assay type: cell-based; conditions: 1 hour, 1 μM OA or 1 μg/ml CsA
Method: (§4) Neonatal Rat Ventricular Myocyte Culture: 1-3 day old Sprague-Dawley rats were decapitated, and the excised hearts placed in 1× ADS Buffer (116 mM NaCl, 20 mM HEPES, 1 mM NaH2PO4, 5.5 mM glucose, 5.4 mM KCl, 0.8 mM MgSO4, pH 7.35). The atria were carefully removed and the blood washed away. The ventricles were minced and incubated with 15 mL 1× ADS Buffer containing 3.3 mg type II collagenase (Worthington, 230 U/mg) and 9 mg Pancreatin (Sigma) at 37° C. with gentle shaking. After 15 minutes, the dissociated cardiac myocytes were separated by centrifugation at 50 g for 1 minute, resuspended in 4 mL horse serum and incubated at 37° C. with occasional agitation. The steps for enzymatic digestion and isolation of myocytes were repeated 10-12 times to maximize yield. The myocytes were pooled and spun down again at 50 g for 2 minutes and resuspended in Maintenance Medium (DMEM:M199, 4:1) supplemented with 10% horse serum and 5% fetal bovine serum. To remove any contaminating fibroblasts, the cells were pre-plated for 1 hour before plating on gelatin-coated tissue culture plastic ware. This procedure yields >90% pure cardiac myocytes. After 1 day culture, the media was changed to maintenance medium containing 0.1 mM bromodeoxyuridine to suppress fibroblast growth. […]

[5] = test system: PDE4D3 Ser-54; experiment: PDE4D3 Ser-54 phosphorylation in mAKAP immunoprecipitates from transfected HEK293 cells (phospho-specific immunoblot); assay type: cell-based; conditions: HEK293 cells over-expressing mAKAP and PDE4D3; OA or 500 μM CsA for 30 min
[6] = test system: mAKAP-associated phosphodiesterase; experiment: PDE activity of native mAKAP complexes immunoprecipitated from adult rat heart extracts; assay type: biochemical
Method: as §1
PDE assay—PDE activity associated with immunoprecipitated protein complexes was assayed according to the method by Beavo et al. (Beavo, Bechtel, and Krebs 1974). Samples were assayed in 45 μl PDE buffer A (100 mM MOPS, pH 7.5, 4 mM EGTA, 1.0 mg/ml bovine serum albumin) and 50 μl PDE buffer B [100 mM MOPS, pH 7.5, 75 mM MgAc, 1 μM cAMP and 100,000 cpm [^3H]cAMP (Dupont, NEN)]. Inhibitors were included as indicated.

[7] = test system: full-length wildtype mAKAP (GFP-tagged) expressed in HEK293 cells
Sequence of full-length wildtype mAKAP (GFP-tagged) expressed in HEK293 cells (chain, as listed by the source): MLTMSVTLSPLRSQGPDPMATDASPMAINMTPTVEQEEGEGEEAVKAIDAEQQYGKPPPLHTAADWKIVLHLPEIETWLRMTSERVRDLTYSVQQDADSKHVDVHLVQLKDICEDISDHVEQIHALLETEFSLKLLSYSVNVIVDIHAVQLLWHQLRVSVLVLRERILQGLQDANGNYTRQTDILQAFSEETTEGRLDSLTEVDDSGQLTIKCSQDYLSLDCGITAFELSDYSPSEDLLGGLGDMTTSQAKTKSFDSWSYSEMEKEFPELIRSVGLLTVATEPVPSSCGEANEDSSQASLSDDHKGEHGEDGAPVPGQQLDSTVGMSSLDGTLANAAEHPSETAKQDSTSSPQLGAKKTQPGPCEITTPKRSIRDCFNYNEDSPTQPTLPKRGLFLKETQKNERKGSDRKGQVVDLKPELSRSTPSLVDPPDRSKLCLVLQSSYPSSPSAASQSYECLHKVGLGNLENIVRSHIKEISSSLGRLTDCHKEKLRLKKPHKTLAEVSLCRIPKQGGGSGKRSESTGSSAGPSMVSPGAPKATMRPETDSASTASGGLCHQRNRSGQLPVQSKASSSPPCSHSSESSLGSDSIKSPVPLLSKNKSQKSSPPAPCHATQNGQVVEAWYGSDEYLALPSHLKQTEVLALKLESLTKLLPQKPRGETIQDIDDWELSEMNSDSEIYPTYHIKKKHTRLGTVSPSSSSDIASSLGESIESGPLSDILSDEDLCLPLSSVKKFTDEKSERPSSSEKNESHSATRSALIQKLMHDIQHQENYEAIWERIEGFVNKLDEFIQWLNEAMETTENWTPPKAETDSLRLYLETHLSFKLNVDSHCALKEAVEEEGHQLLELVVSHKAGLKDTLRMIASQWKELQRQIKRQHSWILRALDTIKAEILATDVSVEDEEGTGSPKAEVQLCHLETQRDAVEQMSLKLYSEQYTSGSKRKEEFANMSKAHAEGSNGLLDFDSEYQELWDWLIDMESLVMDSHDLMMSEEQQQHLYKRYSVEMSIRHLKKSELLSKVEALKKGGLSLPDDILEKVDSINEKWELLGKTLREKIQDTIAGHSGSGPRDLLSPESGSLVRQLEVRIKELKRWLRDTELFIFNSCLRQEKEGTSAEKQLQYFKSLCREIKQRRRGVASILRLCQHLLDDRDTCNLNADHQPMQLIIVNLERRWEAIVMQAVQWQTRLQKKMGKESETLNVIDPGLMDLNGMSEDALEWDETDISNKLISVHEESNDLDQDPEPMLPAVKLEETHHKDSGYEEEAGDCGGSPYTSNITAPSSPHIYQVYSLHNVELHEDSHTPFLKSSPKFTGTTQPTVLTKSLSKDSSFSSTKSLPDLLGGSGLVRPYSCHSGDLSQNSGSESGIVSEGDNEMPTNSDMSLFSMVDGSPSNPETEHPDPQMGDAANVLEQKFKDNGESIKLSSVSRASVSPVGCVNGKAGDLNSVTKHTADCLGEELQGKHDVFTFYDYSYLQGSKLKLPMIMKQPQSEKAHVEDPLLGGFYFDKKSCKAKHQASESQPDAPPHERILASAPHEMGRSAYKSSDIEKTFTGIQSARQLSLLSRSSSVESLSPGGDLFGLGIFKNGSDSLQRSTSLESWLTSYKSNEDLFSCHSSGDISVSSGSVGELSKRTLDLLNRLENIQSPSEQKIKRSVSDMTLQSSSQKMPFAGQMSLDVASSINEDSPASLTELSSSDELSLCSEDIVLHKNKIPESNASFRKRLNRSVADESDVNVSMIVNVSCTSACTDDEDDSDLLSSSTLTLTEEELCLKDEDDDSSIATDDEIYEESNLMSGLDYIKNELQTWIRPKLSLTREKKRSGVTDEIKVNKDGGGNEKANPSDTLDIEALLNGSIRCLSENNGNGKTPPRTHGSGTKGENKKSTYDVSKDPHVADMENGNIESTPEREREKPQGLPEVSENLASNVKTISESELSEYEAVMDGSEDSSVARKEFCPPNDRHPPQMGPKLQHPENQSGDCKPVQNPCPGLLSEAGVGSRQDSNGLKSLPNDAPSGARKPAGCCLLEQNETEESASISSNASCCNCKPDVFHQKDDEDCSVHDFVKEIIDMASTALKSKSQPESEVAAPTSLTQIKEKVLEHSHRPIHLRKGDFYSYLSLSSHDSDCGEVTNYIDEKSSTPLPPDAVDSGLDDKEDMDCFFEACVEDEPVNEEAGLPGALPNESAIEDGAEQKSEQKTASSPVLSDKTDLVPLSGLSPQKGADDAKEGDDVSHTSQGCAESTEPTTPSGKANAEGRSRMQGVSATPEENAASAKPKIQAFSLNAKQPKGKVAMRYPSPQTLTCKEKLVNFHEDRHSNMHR

[8] = test system: full-length mAKAP mutant with an internal deletion of residues 2053-2073 comprising the PKA binding site (ΔPKA)
Sequence of full-length mAKAP mutant with an internal deletion of residues 2053-2073 comprising the PKA binding site (ΔPKA) (chain, as listed by the source mutant): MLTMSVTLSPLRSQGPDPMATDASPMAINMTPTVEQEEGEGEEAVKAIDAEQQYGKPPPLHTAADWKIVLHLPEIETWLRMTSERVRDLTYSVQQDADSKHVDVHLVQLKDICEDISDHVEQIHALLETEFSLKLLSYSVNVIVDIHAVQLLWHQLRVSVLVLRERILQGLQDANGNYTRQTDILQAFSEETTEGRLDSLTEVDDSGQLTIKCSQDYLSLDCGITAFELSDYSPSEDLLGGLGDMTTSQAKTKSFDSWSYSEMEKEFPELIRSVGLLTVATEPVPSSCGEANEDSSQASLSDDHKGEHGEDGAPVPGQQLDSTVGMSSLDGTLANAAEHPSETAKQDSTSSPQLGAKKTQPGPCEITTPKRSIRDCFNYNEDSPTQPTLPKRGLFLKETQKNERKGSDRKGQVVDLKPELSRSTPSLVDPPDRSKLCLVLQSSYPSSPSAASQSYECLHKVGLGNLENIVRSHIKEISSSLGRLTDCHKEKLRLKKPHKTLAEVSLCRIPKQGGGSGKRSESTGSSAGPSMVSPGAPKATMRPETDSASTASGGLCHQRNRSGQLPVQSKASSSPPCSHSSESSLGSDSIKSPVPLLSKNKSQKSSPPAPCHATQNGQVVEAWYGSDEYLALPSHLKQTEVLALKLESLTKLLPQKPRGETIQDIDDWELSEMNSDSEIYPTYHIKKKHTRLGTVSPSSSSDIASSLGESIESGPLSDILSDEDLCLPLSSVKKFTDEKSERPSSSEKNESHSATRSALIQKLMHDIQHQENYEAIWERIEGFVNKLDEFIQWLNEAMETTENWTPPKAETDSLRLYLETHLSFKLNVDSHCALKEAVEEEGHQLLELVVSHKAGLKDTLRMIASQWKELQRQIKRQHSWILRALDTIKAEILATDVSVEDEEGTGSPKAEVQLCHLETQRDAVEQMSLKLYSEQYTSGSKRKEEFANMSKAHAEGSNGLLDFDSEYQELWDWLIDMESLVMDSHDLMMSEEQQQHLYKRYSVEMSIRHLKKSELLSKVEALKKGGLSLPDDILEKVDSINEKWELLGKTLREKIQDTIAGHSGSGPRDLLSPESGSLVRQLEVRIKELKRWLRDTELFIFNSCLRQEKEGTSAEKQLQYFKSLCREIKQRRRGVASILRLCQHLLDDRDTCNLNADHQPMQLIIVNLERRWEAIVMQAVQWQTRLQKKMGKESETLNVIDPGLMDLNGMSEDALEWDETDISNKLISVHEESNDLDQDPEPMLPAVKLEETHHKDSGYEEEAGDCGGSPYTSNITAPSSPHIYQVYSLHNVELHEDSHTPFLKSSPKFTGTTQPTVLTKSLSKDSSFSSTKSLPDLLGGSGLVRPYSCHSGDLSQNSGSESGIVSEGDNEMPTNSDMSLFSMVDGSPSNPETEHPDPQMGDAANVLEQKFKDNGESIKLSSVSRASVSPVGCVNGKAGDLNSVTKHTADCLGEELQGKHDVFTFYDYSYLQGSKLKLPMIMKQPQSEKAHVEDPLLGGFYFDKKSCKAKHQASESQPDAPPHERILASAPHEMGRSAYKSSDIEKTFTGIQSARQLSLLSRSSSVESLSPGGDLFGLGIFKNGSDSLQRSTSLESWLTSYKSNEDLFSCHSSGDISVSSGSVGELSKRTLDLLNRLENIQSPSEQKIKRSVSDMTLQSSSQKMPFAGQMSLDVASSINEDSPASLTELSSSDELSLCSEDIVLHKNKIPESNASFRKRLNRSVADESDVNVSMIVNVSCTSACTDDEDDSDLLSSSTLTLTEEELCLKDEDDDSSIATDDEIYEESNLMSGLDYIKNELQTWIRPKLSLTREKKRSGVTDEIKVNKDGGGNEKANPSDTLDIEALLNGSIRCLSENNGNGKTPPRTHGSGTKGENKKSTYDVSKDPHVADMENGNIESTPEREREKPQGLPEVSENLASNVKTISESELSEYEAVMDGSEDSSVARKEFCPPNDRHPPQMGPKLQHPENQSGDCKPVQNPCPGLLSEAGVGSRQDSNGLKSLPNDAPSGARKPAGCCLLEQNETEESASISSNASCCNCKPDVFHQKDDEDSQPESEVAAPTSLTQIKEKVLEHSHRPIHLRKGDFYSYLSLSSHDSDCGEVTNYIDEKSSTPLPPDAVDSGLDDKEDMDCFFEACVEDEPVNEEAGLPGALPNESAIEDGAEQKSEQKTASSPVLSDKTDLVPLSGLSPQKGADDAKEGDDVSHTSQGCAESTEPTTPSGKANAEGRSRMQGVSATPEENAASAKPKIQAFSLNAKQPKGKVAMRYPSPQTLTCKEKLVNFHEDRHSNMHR

[9] = test system: mAKAPβ-PP2A association; experiment: Co-immunoprecipitation of endogenous mAKAPβ-PP2A in myocytes; assay type: cell-based, rat; conditions: NRVM infected with adenovirus
Method: as §4

[10] = test system: adult rat ventricular myocytes (ARVM); experiment: ARVM morphologic hypertrophy (cell width and length by immunocytochemistry); assay type: cell-based; conditions: adenoviral expression; for Iso-induced ARVM hypertrophy: 10 μM Iso 24 hours
Method: Adult rat ventricular myocyte isolation and culture: 2-3 month old rats were anesthetized using Ketamine (80-100 mg/kg) and Xylazine (5-10 mg/kg) IP following 1000 U heparinization for cardiac excision. The heart was transferred immediately into chilled perfusion buffer (NaCl 120 mM, KCl 5.4 mM, Na2HPO4·7H2O 1.2 mM, NaHCO320.0 mM, MgCl2·6H2O 1.6 mM, Taurine 5 mM, Glucose 5.6 mM, 2,3-Butanedione monoxime 10 mM) pre-equilibrated with 95% O2 and 5% CO2. After removal of extraneous tissue, the heart was attached via the aorta to a Harvard Langendorff apparatus cannula. Ca^2+-free perfusion was used to flush out remaining blood with a constant rate of 8-10 mL/min at 37° C. The heart was then digested through circulatory perfusion with 50 mL perfusion buffer containing 125 mg type II collagenase (Worthington, 245 U/mg), 0.1 mg protease (Sigma type XIV) and 0.1% BSA. After perfusion, the atria were removed and the ventricular myocytes dissociated by slicing and repetitive pipetting. The debris was filtered by a 200 μm nylon mesh, and the myocytes collected by one minute centrifugation at 50 g. Ca^2+ concentration in the buffer was gradually recovered to 1.8 mM and the myocytes were resuspended in ACCT medium (M199 Medium (Invitrogen 11150-059), Creatine 5 mM, L-carnitine 2 mM, Taurine 5 mM, HEPES 25 mM, 2,3-Butanedione monoxime 10 mM, BSA 0.2% and 1×Insulin-Transferrin-Selenium Supplement) and plated on 10 μg/ml laminin pre-coated dishes. Cells were washed with ACCT medium 1.5 hours after plating and subjected to adenoviral infection or siRNA transfection, in which 100-200 Multiplicity of Infection (MOI) of adenovirus and 100 nmol/L siRNA mixed with Dharmafect1 (Dharmacon) were used, respectively. Adrenergic agonists were added the next day, with biochemical assay and morphological measurement performed after 24 hours of stimulation.
Immunocytochemistry: Myocytes on coverslips were fixed in 3.7% formaldehyde in PBS for 1 hour, permeabilized with 0.3% Triton X-100, and blocked in PBS containing 0.2% BSA and 1% horse serum. The slides were then sequentially incubated for 1 hour with primary and Alexa fluorescent dye-conjugated specific-secondary antibodies (Invitrogen, 1:1000) diluted in blocking buffer. The slips were washed three times with blocking buffer. 1 μg/mL Hoechst 33258 was included in the last wash stop to label nuclei. Slides were sealed in SlowFade Gold antifade buffer (Invitrogen, S36938) for fluorescent microscopy. Wide-field images were acquired using a Leica DM4000 Microscope.

[11] = test system: SRF Ser^103; experiment: SRF Ser103 phosphorylation in adult rat ventricular myocytes (ARVM); assay type: cell-based; conditions: 10 μM Iso 1 day
Method: Adult rat ventricular myocyte isolation and culture: 2-3 month old rats were anesthetized using Ketamine (80-100 mg/kg) and Xylazine (5-10 mg/kg) IP following 1000 U heparinization for cardiac excision. The heart was transferred immediately into chilled perfusion buffer (NaCl 120 mM, KCl 5.4 mM, Na2HPO4·7H2O 1.2 mM, NaHCO320.0 mM, MgCl2·6H2O 1.6 mM, Taurine 5 mM, Glucose 5.6 mM, 2,3-Butanedione monoxime 10 mM) pre-equilibrated with 95% O2 and 5% CO2. After removal of extraneous tissue, the heart was attached via the aorta to a Harvard Langendorff apparatus cannula. Ca^2+-free perfusion was used to flush out remaining blood with a constant rate of 8-10 mL/min at 37° C. The heart was then digested through circulatory perfusion with 50 mL perfusion buffer containing 125 mg type II collagenase (Worthington, 245 U/mg), 0.1 mg protease (Sigma type XIV) and 0.1% BSA. After perfusion, the atria were removed and the ventricular myocytes dissociated by slicing and repetitive pipetting. The debris was filtered by a 200 μm nylon mesh, and the myocytes collected by one minute centrifugation at 50 g. […]

Molecule: Nc1ncnc2c1nc(Sc1ccc(Cl)cc1)n2[C@@H]1O[C@@H]2COP(=O)([O-])O[C@H]2[C@H]1O.[Na+] [CPT-cAMP, 8-(4-chlorophenylthio)adenosine 3′,5′-cyclic monophosphate]
- increase of mAKAP-associated phosphatase activity [1]: 2.5 fold

Molecule: C=C1[C@@H](O)[C@@H]2O[C@]3(CC[C@H](/C=C/[C@@H](C)[C@@H]4CC(C)=C[C@@]5(O[C@H](C[C@@](C)(O)C(=O)O)CC[C@H]5O)O4)O3)CC[C@H]2O[C@@H]1[C@@H](O)C[C@H](C)[C@H]1O[C@@]2(CCCCO2)CC[C@H]1C [OA, okadaic acid]
- mAKAP-bound PDE4D3 activity, Fsk and OA treatment together [2]: synergistically increased PDE4D3 activity
- inhibition of mAKAP-associated phosphatase activity [3]: all immunoprecipitated phosphatase activity was inhibited
- baseline phosphorylation of SRF Ser^103 [4]: promoted baseline phosphorylation of SRF Ser^103
- baseline phosphorylation of PDE4D3 Ser-54 [5]: increase in the baseline phosphorylation of PDE4D3 Ser-54
- increase in mAKAP-associated phosphodiesterase activity when PKA was also inhibited ([6]; 10 nM OA with 50 nM PKI): 60%
- increase in mAKAP-associated phosphodiesterase activity ([6]; 10 nM OA, native complexes from adult rat heart): 30%

Molecule: PKA (cAMP-dependent protein kinase) endogenous in HEK293 cells
- phosphatase activity in mAKAP immunoprecipitates after Fsk/IBMX [7]: cAMP elevation increased phosphatase activity in mAKAP complexes 1.7 fold
- B56δ Ser-566 phosphorylation in mAKAP immunoprecipitates [8]: B56δ phosphorylation was detected only after FSK/IBMX treatment and only when B56δ was co-expressed with wildtype mAKAP and not the ΔPKA mutant
- phosphatase activity in mAKAP immunoprecipitates after Fsk/IBMX [8]: no increase was obtained when B56δ was co-expressed with the mAKAP ΔPKA mutant scaffold

B1: PBD: myc-tagged mAKAP aa 2134-2314 fragment, PP2A anchoring disruptor, expressed by adenovirus (protein)
chain: MEQKLISEEDLSPGMLTMSVTLSPLRSQTPLPPDAVDSGLDDKEDMDCFFEACVEDEPVNEEAGLPGALPNESAIEDGAEQKSEQKTASSPVLSDKTDLVPLSGLSPQKGADDAKEGDDVSHTSQGCAESTEPTTPSGKANAEGRSRMQGVSATPEENAASAKPKIQAFSLNAKQPKGKVAMRYPSPQTLTCKEKLVNFHEDRHSNMHR
modifications: myc-tagged rat mAKAP PBD
notes: myc-tagged mAKAP aa 2134-2314 fragment, PP2A anchoring disruptor, expressed by adenovirus
- endogenous mAKAPβ-PP2A association [9]: competed endogenous mAKAPβ-PP2A association
- Iso-induced ARVM hypertrophy [10]: attenuated the eccentric hypertrophy
- Iso-induced ARVM hypertrophy ([10]; listed as PDB): promoted ARVM concentric hypertrophy
- PE-induced ARVM hypertrophy ([10]; 20 μM PE 24 hours): did not enhance nor diminish
- basal ARVM morphology ([10]; no drug): no effect
- Iso-induced SRF Ser^103 phosphorylation [11]: potentiated the induction of SRF Ser^103 phosphorylation
